Read-outs that look alike come from different tables or passages of the source.
How the values were obtained:
[1] = biological target: RBD-Fc (义翘神州，40592-V05H) (SARS-CoV-2) (UniProt P0DTC2)
[2] = biological target: RBD-Fc (义翘神州，40592-V05H) (SARS-CoV-2) (UniProt P0DTC2); remark: listed apart in the source

“hACE2-Fc融合蛋白 (人ACE2胞外区(ECD)与人IgG1的Fc片段的融合蛋白) (Fc fusion)” gave an IC50 [1] of 7.6 nM and an IC50 [2] of 5.02 nM.

From patent CN114057887A
